Assay results: publication PMC7213981, “Enhancer architecture sensitizes cell specific responses to Notch gene dose via a bind and discard mechanism”

Experiments:
RBPJ (CSL);N1ICD;MAML1 [1] = target: T1, RBPJ (CSL);N1ICD;MAML1 (mouse;mouse;human, UniProt P31266;Q01705;Q92585 53-474;1744-2113;1-280, ||); experiment: EMSA; both probes in the same reaction; 1 uM NICD/MAML; cooperative, both sites preferentially filled; Native PAGE EMSA, LICOR Odyssey CLx imaging; equal amounts of both probes in one reaction; buffer, salt, pH and temperature not stated (as in Uhl 2010, 2016); details: protein: recombinant;recombinant;recombinant; copies: 1;1;1; label: 5' IRDye-800 on the complementary strand (primer S25)
Su(H) [2] = target: T2, Su(H) (Drosophila melanogaster, UniProt P28159 98-523); experiment: EMSA; both probes in the same reaction; Su(H) 10-320 nM, no co-activators; additive, slightly lower affinity than 2xCSL; Native PAGE EMSA, LICOR Odyssey CLx imaging; equal amounts of both probes in one reaction; buffer, salt, pH and temperature not stated (as in Uhl 2010, 2016); details: protein: recombinant; label: 5' IRDye-800 on the complementary strand (primer S25)
RBPJ (CSL) [3] = target: T3, RBPJ (CSL) (mouse, UniProt P31266 53-474); experiment: EMSA; both probes in the same reaction; RBPJ 10-320 nM, no co-activators; additive, slightly lower affinity than 2xCSL; Native PAGE EMSA, LICOR Odyssey CLx imaging; equal amounts of both probes in one reaction; buffer, salt, pH and temperature not stated (as in Uhl 2010, 2016); details: protein: recombinant; label: 5' IRDye-800 on the complementary strand (primer S25)
[4] = target: T4, Su(H);NICD;Mastermind (Mam) (Drosophila melanogaster;Drosophila …, UniProt P28159;P07207;P21519 98-523;1763-2412;87-307, ||); experiment: EMSA; both probes in the same reaction; 1 uM NICD/Mam; cooperative, less 2NCM complex than the mouse proteins; Native PAGE EMSA, LICOR Odyssey CLx imaging; equal amounts of both probes in one reaction; buffer, salt, pH and temperature not stated (as in Uhl 2010, 2016); details: protein: recombinant;recombinant;recombinant; copies: 1;1;1; label: 5' IRDye-800 on the complementary strand (primer S25)
RBPJ (CSL);N1ICD;MAML1 [5] = target: T1, RBPJ (CSL);N1ICD;MAML1; experiment: EMSA; both probes in the same reaction; 1 uM NICD/MAML; additive, not cooperative, less preferred than 1xSPS; Native PAGE EMSA, LICOR Odyssey CLx imaging; equal amounts of both probes in one reaction; buffer, salt, pH and temperature not stated (as in Uhl 2010, 2016); details: protein: recombinant;recombinant;recombinant; copies: 1;1;1; label: 5' IRDye-700 on the complementary strand (primer S25)
Su(H) [6] = target: T2, Su(H); experiment: EMSA; both probes in the same reaction; Su(H) 10-320 nM, no co-activators; additive, slightly higher affinity than 1xSPS; Native PAGE EMSA, LICOR Odyssey CLx imaging; equal amounts of both probes in one reaction; buffer, salt, pH and temperature not stated (as in Uhl 2010, 2016); details: protein: recombinant; label: 5' IRDye-700 on the complementary strand (primer S25)
RBPJ (CSL) [7] = target: T3, RBPJ (CSL); experiment: EMSA; both probes in the same reaction; RBPJ 10-320 nM, no co-activators; additive, slightly higher affinity than 1xSPS; Native PAGE EMSA, LICOR Odyssey CLx imaging; equal amounts of both probes in one reaction; buffer, salt, pH and temperature not stated (as in Uhl 2010, 2016); details: protein: recombinant; label: 5' IRDye-700 on the complementary strand (primer S25)
[8] = target: T4, Su(H);NICD;Mastermind (Mam); experiment: EMSA; both probes in the same reaction; 1 uM NICD/Mam; additive, not cooperative, less preferred than 1xSPS; Native PAGE EMSA, LICOR Odyssey CLx imaging; equal amounts of both probes in one reaction; buffer, salt, pH and temperature not stated (as in Uhl 2010, 2016); details: protein: recombinant;recombinant;recombinant; copies: 1;1;1; label: 5' IRDye-700 on the complementary strand (primer S25)

Measured: binding result

T3 sequence (P31266 53-474): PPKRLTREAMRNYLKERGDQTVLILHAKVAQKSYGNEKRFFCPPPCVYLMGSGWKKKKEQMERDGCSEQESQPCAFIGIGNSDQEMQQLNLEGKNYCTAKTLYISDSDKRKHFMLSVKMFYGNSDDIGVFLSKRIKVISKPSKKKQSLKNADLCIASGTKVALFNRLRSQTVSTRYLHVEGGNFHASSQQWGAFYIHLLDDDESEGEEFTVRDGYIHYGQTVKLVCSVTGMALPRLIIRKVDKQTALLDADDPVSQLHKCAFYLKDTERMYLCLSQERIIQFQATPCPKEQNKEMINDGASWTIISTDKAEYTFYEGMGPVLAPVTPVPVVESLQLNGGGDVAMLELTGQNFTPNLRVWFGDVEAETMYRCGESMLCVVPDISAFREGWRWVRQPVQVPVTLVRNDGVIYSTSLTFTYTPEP
T1 sequence (P31266 53-474, chain 1 of 3): as the sequence (P31266 53-474) above
T1 sequence (Q01705 1744-2113, chain 2 of 3): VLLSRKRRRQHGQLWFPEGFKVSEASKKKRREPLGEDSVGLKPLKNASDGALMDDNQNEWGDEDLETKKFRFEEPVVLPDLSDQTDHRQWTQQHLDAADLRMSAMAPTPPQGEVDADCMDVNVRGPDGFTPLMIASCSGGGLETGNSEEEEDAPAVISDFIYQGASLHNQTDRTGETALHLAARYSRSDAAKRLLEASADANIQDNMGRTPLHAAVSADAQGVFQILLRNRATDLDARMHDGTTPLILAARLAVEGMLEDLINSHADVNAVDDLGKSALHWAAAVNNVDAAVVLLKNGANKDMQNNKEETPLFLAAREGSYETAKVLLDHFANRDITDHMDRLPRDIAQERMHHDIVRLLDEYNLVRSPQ
T1 sequence (Q92585 1-280, chain 3 of 3): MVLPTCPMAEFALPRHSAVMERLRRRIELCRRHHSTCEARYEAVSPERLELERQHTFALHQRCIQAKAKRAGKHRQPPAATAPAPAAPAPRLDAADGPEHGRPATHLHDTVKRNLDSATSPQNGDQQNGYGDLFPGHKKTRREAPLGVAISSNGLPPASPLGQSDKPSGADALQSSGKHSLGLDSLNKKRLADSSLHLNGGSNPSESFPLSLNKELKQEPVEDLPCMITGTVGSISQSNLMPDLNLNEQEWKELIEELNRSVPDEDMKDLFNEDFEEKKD
T4 sequence (P28159 98-523, chain 1 of 3): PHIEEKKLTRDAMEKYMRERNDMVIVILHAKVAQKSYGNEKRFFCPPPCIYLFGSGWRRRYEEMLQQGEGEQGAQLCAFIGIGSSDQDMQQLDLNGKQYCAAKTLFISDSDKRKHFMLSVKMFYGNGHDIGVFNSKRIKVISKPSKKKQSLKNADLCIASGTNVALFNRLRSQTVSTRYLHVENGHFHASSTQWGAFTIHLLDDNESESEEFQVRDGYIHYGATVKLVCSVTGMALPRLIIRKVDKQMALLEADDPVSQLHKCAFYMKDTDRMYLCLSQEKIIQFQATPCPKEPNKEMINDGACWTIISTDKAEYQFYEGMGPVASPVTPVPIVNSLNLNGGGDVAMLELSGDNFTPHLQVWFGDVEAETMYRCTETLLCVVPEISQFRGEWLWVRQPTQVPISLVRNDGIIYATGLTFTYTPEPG
T4 sequence (P07207 1763-2412, chain 2 of 3): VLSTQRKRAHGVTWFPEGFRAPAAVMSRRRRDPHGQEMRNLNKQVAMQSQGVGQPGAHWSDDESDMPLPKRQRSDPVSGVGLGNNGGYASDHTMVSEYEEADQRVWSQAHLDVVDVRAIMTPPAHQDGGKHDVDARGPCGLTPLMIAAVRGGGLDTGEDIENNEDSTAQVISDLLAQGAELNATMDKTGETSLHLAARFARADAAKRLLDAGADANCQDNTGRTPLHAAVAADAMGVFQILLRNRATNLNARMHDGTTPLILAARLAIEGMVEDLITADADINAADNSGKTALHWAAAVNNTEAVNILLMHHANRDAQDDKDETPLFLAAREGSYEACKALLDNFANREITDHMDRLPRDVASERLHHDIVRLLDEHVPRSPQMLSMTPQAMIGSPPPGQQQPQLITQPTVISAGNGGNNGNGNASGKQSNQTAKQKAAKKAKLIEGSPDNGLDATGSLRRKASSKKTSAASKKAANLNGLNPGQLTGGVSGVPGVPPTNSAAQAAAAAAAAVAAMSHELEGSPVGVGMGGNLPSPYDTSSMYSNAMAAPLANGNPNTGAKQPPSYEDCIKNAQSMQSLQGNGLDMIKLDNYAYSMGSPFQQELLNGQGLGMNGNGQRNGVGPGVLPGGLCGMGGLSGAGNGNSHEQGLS
T4 sequence (P21519 87-307, chain 3 of 3): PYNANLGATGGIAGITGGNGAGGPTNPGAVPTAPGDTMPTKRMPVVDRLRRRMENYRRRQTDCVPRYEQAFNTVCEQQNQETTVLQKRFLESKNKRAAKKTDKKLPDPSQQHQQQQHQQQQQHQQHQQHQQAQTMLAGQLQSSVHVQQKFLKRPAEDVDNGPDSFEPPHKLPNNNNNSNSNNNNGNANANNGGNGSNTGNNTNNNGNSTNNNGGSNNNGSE
T2 sequence (P28159 98-523): as the sequence (P28159 98-523, chain 1 of 3) above

B1: 1xSPS EMSA probe (dsDNA)
DNA 1: GCTACGTGGGAAAGGAGCAAACTGCGTTTCCCACGTTCGTAGTGCGGGCGTGGCT
DNA 2: AGCCACGCCCGCACTACGAACGTGGGAAACGCAGTTTGCTCCTTTCCCACGTAGC
binds: RBPJ (CSL);N1ICD;MAML1 [1] | Su(H) [2] | RBPJ (CSL) [3] | [4]

B2: 2xCSL EMSA probe (dsDNA)
DNA 1: CGAACGTGGGAAACCTAGGCTAGAGGCACCGTGGGAAACTAGTGCGGGCGTGGCT
DNA 2: AGCCACGCCCGCACTAGTTTCCCACGGTGCCTCTAGCCTAGGTTTCCCACGTTCG
binds: RBPJ (CSL);N1ICD;MAML1 [5] | Su(H) [6] | RBPJ (CSL) [7] | [8]
